Experimental findings from patent US20220233607A1 (UNIVERSIT DE TOURS, published 2022) are described below.

The assay deals with T1, DEC205 on MutuDC 1950 cells (murine dendritic cell line, DEC205+) (murine, UniProt Q60767 28-1723).
T1 construct: whole, on cells; also called CD205; dendritic cells
The assay can be described thus: flow cytometry, MutuDC 1950 cells with parasites at MOI 2 on ice, anti-gp23 mAb.

B1: scFv anti-DEC205 (DC2) protein, membrane anchored ScFv DEC 205 including a HA tag, on the surface of T. gondii RH-DC2 tachyzoites (scFv)
scFv: YPYDVPDYAQVQLQESGGGLVQPGGSLRLSCAASGFTFNDFYMNWIRQPPGQAPEWLGVIRNKGNGYTTEVNTSVKGRFTISRDNTQNILYLQMNSLRAEDTAIYYCARGGPYYYSGDDAPYWGQGVMVTVSSGGGGSGGGGSGGGGSDIQMTQSPSSLSASVGDRVTITCRASQNIKGWLAWYQQKSGNAPQLLIYKASSLQSGVPSRFSGSGSGTDYIFTISNLQPEDIATYYCQHYQSFPWTFGGGTKLELKGGGAS
notes: also called SS SAG1-HA-ScFv-linker-GPI; RH-DEC205
B1: the “multiplication factor of the percentage of T. gondii binding to mutuDC cells (against RH strain)” value is ≥ 2.5 fold.

B2: scFv anti-DEC205 fused to SAG1 (DC2 SAG1) protein, membrane anchored SAG1 ScFv DEC 205 including a HA tag, on the surface of T. gondii RH-DC2-SAG1 tachyzoites (scFv)
scFv: YPYDVPDYAQVQLQESGGGLVQPGGSLRLSCAASGFTFNDFYMNWIRQPPGQAPEWLGVIRNKGNGYTTEVNTSVKGRFTISRDNTQNILYLQMNSLRAEDTAIYYCARGGPYYYSGDDAPYWGQGVMVTVSSGGGGSGGGGSGGGGSDIQMTQSPSSLSASVGDRVTITCRASQNIKGWLAWYQQKSGNAPQLLIYKASSLQSGVPSRFSGSGSGTDYIFTISNLQPEDIATYYCQHYQSFPWTFGGGTKLELKGGGASPLVANQVVTCPDKKSTAAVILTPTENHFTLKCPKTALTEPPTLAYSPNRQICPAGTTSSCTSKAVTLSSLIPEAEDSWWTGDSASLDTAGIKLTVPIEKFPVTTQTFVVGCIKGDDAQSCMVTVTVQARASSVVNNVARCSYGADSTLGPVKLSAEGPTTMTLVCGKDGVKVPQDNNQYCSGTTLTGCNEKSFKDILPKLTENPWQGNASSDKGATLTIKKEAFPAESKSVIIGCTGGSPEKHHCTVKLEFA
notes: also called RH-DEC205
In the case of B2, the “multiplication factor of the percentage of T. gondii binding to mutuDC cells (against RH strain)” value was ≥ 2.5 fold.
